Assay results reported in patent publication US20250152722A1, “DRUG CONJUGATE OF GLUCOCORTICOID” (SHANGHAI SHENGDI PHARMACEUTICAL CO., LTD., priority 2022, published 2025).

T1: human IL-4Rα protein (Homo sapiens, UniProt P24394)
T1 construct: purchased SinoBiological 10402-H08H-B
T1 sequence (P24394 26-232 limits assumed): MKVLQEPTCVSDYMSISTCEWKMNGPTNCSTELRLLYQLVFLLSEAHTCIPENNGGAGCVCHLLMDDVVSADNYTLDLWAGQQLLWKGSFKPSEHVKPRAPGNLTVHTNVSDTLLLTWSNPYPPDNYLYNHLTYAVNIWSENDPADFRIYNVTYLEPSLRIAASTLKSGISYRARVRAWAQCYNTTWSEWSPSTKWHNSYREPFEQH

T2: Biotin-labeled human IL-4Rα protein (SinoBiological, CAT #10402-H08H-B) (human, UniProt P24394 26-232, Biotin-labeled (sites not given))
T2 construct: Bought reagent, captured on an SA sensor chip; also called hIL-4Rα; human IL-4Rα antigen protein
T2 sequence (looked up): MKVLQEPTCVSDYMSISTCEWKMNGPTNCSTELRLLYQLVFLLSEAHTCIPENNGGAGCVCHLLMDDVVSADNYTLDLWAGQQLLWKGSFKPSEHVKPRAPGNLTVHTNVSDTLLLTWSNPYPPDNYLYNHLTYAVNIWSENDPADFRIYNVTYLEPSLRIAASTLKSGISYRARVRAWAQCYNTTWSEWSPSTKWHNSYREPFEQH

T3: human IL-4Rα expressed on cells (human, UniProt P24394 26-825)
T3 construct: whole, on cells; also called IL-4Rα on TF-1 cells; cells expressing human IL-4Rα
T3 sequence (looked up): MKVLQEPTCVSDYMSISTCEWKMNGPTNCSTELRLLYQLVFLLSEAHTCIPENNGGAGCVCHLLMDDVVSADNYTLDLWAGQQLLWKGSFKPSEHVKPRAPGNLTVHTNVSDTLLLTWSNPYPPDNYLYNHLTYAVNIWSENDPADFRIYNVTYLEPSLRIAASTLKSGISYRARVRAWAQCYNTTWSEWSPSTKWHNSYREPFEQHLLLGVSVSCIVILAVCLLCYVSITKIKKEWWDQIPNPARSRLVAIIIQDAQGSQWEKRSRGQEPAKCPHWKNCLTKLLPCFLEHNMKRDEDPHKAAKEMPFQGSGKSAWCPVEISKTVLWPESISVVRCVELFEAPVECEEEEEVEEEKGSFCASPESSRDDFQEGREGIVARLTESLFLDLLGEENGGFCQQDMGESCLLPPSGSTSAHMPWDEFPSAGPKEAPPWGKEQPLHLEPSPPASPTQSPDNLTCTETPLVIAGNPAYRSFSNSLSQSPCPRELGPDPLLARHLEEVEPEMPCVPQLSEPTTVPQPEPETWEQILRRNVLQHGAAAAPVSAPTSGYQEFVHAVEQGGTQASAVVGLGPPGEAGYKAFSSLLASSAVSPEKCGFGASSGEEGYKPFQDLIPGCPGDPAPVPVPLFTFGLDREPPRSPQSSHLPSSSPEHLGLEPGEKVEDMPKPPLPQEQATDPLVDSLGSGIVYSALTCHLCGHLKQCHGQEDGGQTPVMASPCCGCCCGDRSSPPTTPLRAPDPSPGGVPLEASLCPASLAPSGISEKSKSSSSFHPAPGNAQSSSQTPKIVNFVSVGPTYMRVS


Tests used:
[1] = target: T1, human IL-4Rα protein; assay: SPR affinity for human IL-4Rα antigen protein (Biacore 8K); type: binding; settings: captured hIL-4Rα
Experimental: An SA sensor chip (Cytiva) was placed in Biacore 8K (Cytiva), and Biotin-labeled human IL-4Rα protein (SinoBiological, CAT #10402-H08H-B) was captured on the SA sensor chip. HBS-EP+buffer solution (10 mM HEPES, 150 mM NaCl, 3 mM EDTA, 0.05% surfactant P20) was used as the mobile phase. Each test protein was serially diluted 2-fold with HBS-EP+buffer solution and then injected as an analyte. […] Analysis was performed using Biacore 8K evaluation software (Cytiva), and data on the affinities of the test proteins were obtained.

[2] = Pharmacokinetic testing on mouse model after intratracheal nebulization; type: in vivo; settings: after ADC-2 100 μg i.t., mice
Experimental: C57BL6/J mice, 8 weeks old, male, Cyagen (Suzhou) Biosciences Co., Ltd.
Mice were given medication via intratracheal nebulization (i.t.). At different time points post-administration, 300-400 μL of blood was collected from a mandibular blood vessel, left to stand for 2 h, and then centrifuged at 7500 rpm and 4° C. for 10 min, and the serum was collected. Following the blood collection, the mice were anesthetized and immobilized, the neck muscles of the mice were bluntly isolated to expose the trachea, and an incision was horizontally made in the trachea. A lavage syringe needle was slowly inserted, the normal saline pre-loaded, pre-cooled at 4° C., was slowly injected into the lung tissue for lavage, and the bronchoalveolar lavage fluid (BALF) was collected. Lavage was performed 3 times, with 300 μL of normal saline used for each of the first two lavages and 400 μL for the third. The collected bronchoalveolar lavage fluid was centrifuged at 1000 rpm and 4° C. for 10 min, and the supernatant was collected. After the mice were euthanized, their thoracic cavities were opened, and the complete lung tissues were isolated and collected. The tissues were rinsed with PBS to remove blood stains on the surfaces, and the surface PBS was dried off with paper towels before weighing the lung tissues. […] The protein concentrations in the homogenates were measured (Pierce, 23227). […]

[3] = target: T2, Biotin-labeled human IL-4Rα protein …; assay: SPR, Biacore 8K, biotinylated hIL-4Rα captured on SA chip, test protein as analyte
Experimental: HBS-EP+buffer solution (10 mM HEPES, 150 mM NaCl, 3 mM EDTA, 0.05% surfactant P20) was used as the mobile phase. Each test protein was serially diluted 2-fold with HBS-EP+buffer solution and then injected as an analyte. The flow rate was set to 30 μL/min. […] Analysis was performed using Biacore 8K evaluation software (Cytiva), and data on the affinities of the test proteins were obtained.

[4] = target: T3, human IL-4Rα expressed on cells; assay: flow cytometry, whole-cell binding to Karpas 299 cells expressing IL-4Rα; FITC anti-human IgG (Fab-specific) secondary antibody
Experimental: (§1) TF-1 and Karpas299 cells in the logarithmic growth phase were harvested and counted, and the cell density was adjusted. The cells were inoculated onto a 96-well round-bottom plate at 1×10⁵ cells/well. […] After the antibodies were washed off with FACS buffer (PBS containing 2% FBS), a fluorescently labeled secondary antibody was added for staining. […] The cells were incubated with the secondary antibodies at 4° C. for 30 min, then washed with FACS buffer twice, and assayed on a flow cytometer (BD, FACS Celesta), and the results were analyzed using FlowJo (FlowJo, LLC) software.

[5] = target: T3, human IL-4Rα expressed on cells; assay: flow cytometry on TF-1 cells, anti-hFab-FITC secondary antibody
Experimental: as §1

[6] = target: T3, human IL-4Rα expressed on cells; assay: cell-based or functional assay

Molecule	EC50 (read off the curve) [4]	EC50 [5]	IC50 value (nM) for blocking of IL-4 signaling pathway (HEK-Blue IL-4/IL-13 STAT6-SEAP reporter cells, recombinant human IL-4) [6]	IC50 value (nM) for blocking of IL-13 signaling pathway (HEK-Blue IL-4/IL-13 STAT6-SEAP reporter cells, recombinant human IL-13) [6]	also measured
AZD1402-TAG: protein sequence from SEQ ID NO: 1 in WO2020200960A1 with a His tag fused at the C-terminus (SEQ ID NO: 52)					Koff [1]: 0.000102 s⁻¹; Kon [1]: 4.77e+06 M⁻¹ s⁻¹
CCCC1O[C@@H]2C[C@H]3[C@@H]4CCC5=CC(=O)C=C[C@]5(C)[C@H]4[C@@H](O)C[C@]3(C)[C@]2(C(=O)CO)O1 (stereo partly drawn) [Free budesonide, budesonide]					exposure of budesonide in serum, BALF and lung tissue (in words) [2]: low in all these tissues
25G7-Fab (Fab, V domains shown, Heavy chain is VH-CH1 (hu25G7-24-IgG4 VH-CH1), light chain is hu25G7-A LC; also called naked antibody 25G7-Fab; antibody 25G7-Fab) VH: EVQLVESGGGLVQPGGSLRLSCAASGFTFSDYGMHWVRQAPGKGLEWVAFISSGSSIIYYADIVKGRSTISRDNAKNTLYLQMNSLRAEDTAVYYCTRGNKRGFFDYWGQGTLVTVSS VL: EIVLTQSPATLSLSPGERATLSCRASSSVPYMYWYQQKPGQAPRLLIYLTSNLASGIPARFSGSGSGTDFTLTISSLEPEDFAVYYCQQWRAYPPMLTFGGGTKVEIKR	~0.2 nM	0.243 nM	0.61 nM	14.6 nM	Kd [3]: 0.0439 nM; koff [3]: 0.000206 s⁻¹; kon [3]: 4.69e+06 M⁻¹ s⁻¹
hu25G7 (antibody, human IgG4 S228P, kappa, V domains shown, Full-length humanized antibody) VH: EVQLVESGGGLVQPGGSLRLSCAASGFTFSDYGMHWVRQAPGKGLEWVAFISSGSSIIYYADIVKGRSTISRDNAKNTLYLQMNSLRAEDTAVYYCTRGNKRGFFDYWGQGTLVTVSS VL: EIVLTQSPATLSLSPGERATLSCRASSSVPYMYWYQQKPGQAPRLLIYLTSNLASGIPARFSGSGSGTDFTLTISSLEPEDFAVYYCQQWRAYPPMLTFGGGTKVEIKR	~0.1 nM	0.247 nM			
antibody-drug conjugate ADC-2 (other, budesonide linker-drug (Compound 2) coupled after TCEP reduction of 25G7-Fab; positions and drug loading not given; budesonide linker-drug (Compound 2, maleimide-(PEG)4-CH2CH2C(O)-Gly-Gly-Phe-Gly-NHCH2-O-budesonide) coupled after TCEP reduction of 25G7-Fab; positions and drug loading not given) heavy: EVQLVESGGGLVQPGGSLRLSCAASGFTFSDYGMHWVRQAPGKGLEWVAFISSGSSIIYYADIVKGRSTISRDNAKNTLYLQMNSLRAEDTAVYYCTRGNKRGFFDYWGQGTLVTVSSASTKGPSVFPLAPCSRSTSESTAALGCLVKDYFPEPVTVSWNSGALTSGVHTFPAVLQSSGLYSLSSVVTVPSSSLGTKTYTCNVDHKPSNTKVDKRV light: EIVLTQSPATLSLSPGERATLSCRASSSVPYMYWYQQKPGQAPRLLIYLTSNLASGIPARFSGSGSGTDFTLTISSLEPEDFAVYYCQQWRAYPPMLTFGGGTKVEIKRTVAAPSVFIFPPSDEQLKSGTASVVCLLNNFYPREAKVQWKVDNALQSGNSQESVTEQDSKDSTYSLSSTLTLSKADYEKHKVYACEVTHQGLSSPVTKSFNRGEC	~0.3 nM		0.68 nM	10.6 nM	
